Results taken from the Human Domainome abundance scans (Beltran et al. 2025).

B1: Activity-dependent neuroprotector homeobox protein, residues 770 to 810; numbered along this chain, Q9H2P0 (parent)
chain: FLTKYFNKQPYPTRREIEKLAASLWLWKSDIASHFSNKRKK

Variants of: B1
Experiment: abundance fitness (aPCA) (normalised: wild type 0, dead -1); higher = more abundant; growth selection in yeast, the domain comes from the species named
Settings: Homo sapiens

Abundance fitness: each site, then its substitutions
A21: Y -0.177 | W 0.008
S33: W -0.147 | L -0.154 | H 0.018 | N -0.284 | K 0.044 | C -0.058 | D -0.267 | Y -0.381 | M -0.061 | T -0.076 | P -0.01 | V -0.276 | R 0.032 | G -0.023 | F -0.244 | Q -0.033 | I -0.149 | A 0.014
F35: N -0.205 | C -0.347 | Q -0.238 | G -0.112 | K -0.211 | P -0.231 | L -0.023 | D -0.157 | V -0.063 | H -0.237 | Y -0.235 | M 0.004 | S -0.156 | T -0.229 | I -0.208 | E -0.068 | A -0.119
A32: T -0.086 | Q -0.169 | W 0.113 | R 0.029 | C 0.074 | P -0.383 | S -0.196
A22: D -0.25 | L -0.396 | E -0.162 | M -0.084 | Y -0.303 | T -0.087 | R -0.027 | V -0.344 | F -0.594 | N -0.015 | C -0.229 | Q 0.045 | I -0.368 | S -0.117 | K 0.075 | W -0.193 | G -0.058
S29: V -0.302 | G -0.014 | C -0.206 | E -0.294 | L -0.145 | H 0.077 | F -0.43 | P 0.229 | M -0.124 | K 0.208 | Q 0.173 | I 0.031 | R -0.088
L24: F -0.197 | D -0.033 | K -0.321 | I 0.051 | W -0.121 | E -0.82 | T -0.212 | G -0.228 | Q -0.783 | A -0.026 | R -0.339 | V 0.123 | C -0.122 | S -0.483 | P -0.289
L26: G 0.101 | K 0.341 | W 0.044 | P 0.343 | M 0.115 | T 0.022 | S 0.033 | F 0.069 | Y -0.151 | Q 0.122 | C -0.014 | H 0.253 | E 0.127 | A -0.116 | D -0.004 | R 0.198 | I -0.134 | V 0.037
D30: F -0.257 | A -0.247 | T -0.182 | P 0.056 | K 0.071 | L -0.376 | G -0.025 | V -0.317 | Y -0.082 | E -0.124 | H -0.124 | Q 0 | W -0.01 | M -0.054 | R -0.026
K38: V -0.119 | T -0.229 | R -0.115 | I -0.182 | C -0.193 | E -0.327 | Q -0.216 | P -0.206 | F -0.269 | A -0.167 | Y -0.433 | N -0.298 | L -0.197 | G -0.09 | W -0.242 | H -0.112 | S -0.183
W27: V -0.061 | N -0.295 | D -0.22 | Y -0.227 | Q -0.492 | H -0.137 | P -0.398 | E -0.74 | T -0.152 | K 0.067 | C -0.188 | M -0.031 | A -0.084 | L -0.04 | G 0.037 | R 0.025
S36: D -0.159 | L -0.316 | I -0.091 | G 0.083 | Q -0.085 | F -0.055 | H 0.01 | K 0.051 | T 0.059 | E -0.395 | R 0.087 | V -0.262
